Biological target: the molecule itself
Experiment: crystal structure

B1: C-terminal soluble domain of STOPP (stomatin operon partner protein) PH1510 from Pyrococcus horikoshii (domain or fragment, UniProt O59179 371-441, looked up)
chain: KARTGKEEMIGLIGTVVEELNPEGMIKVRGELWKARSKFNGKIEKGEKVRVVDMDGLTLIVVRERKEGGEK
binding result: binds
